Experimental data: patent US7144731B2, “SCF antibody compositions and methods of using the same” (Amgen Inc., priority 1989, dated 2006)

Experiments:
[1] = system: Steel-Dickie (S1/S1^d) mice; experiment: In vivo activity in Steel-Dickie mice; design: species or system mouse; details: 100 μg/kg/day 30 days then 30 μg/kg/day 20 days, s.c.
Protocol: Steel mice provide a sensitive in vivo model for SCF activity. Different recombinant SCF proteins were tested in Steel-Dickie (S1/S1^d) mice for varying lengths of time. Six to ten week old Steel mice (WCB6F1-S1/S1^d) were purchased from Jackson Labs, Bar Harbor, Me. Peripheral blood was monitored by a SYSMEX F-800 microcell counter (Baxter, Irvine, Calif.) for red cells, hemoglobin, and platelets. For enumeration of peripheral white blood cell (WBC) numbers, a Coulter Channelyzer 256 (Coulter Electronics, Marietta, Ga.) was used.
In the experiment in FIG. 24, Steel-Dickie mice were treated with E. coli derived SCF^1-164, purified as in Example 10, at a dose of 100 μg/kg/day for 30 days, then at a dose of 30 μg/kg/day for an additional 20 days. The protein was formulated in injectable saline (Abbott Labs, North Chicago, Ill.) +0.1% fetal bovine serum. The injections were performed daily, subcutaneously. The peripheral blood was monitored via tail bleeds of ˜50 μl at the indicated times in FIG. 24. The blood was collected into 3% EDTA coated syringes and dispensed into powdered EDTA microfuge tubes (Brinkmann, Westbury, N.Y.). […]
Whole blood was stained for T lymphocyte subsets as follows. […] Each sample of blood was then analyzed on a FACScan cell analysis system (Becton Dickinson, Mountain View, Calif.). […]

mouse bone marrow cells = experiment: Pre-B cell colony formation in agar cultures; type: cell-based
Excerpt: The ability of recombinant rat SCF^1-164 (rrSCF^1-164), to act synergistically with IL-7 to enhance lymphoid cell proliferation was studied in agar cultures of mouse bone marrow. In this assay, the colonies formed with rrSCF^1-164 alone contained monocytes, neutrophils, and blast-cells, while the colonies stimulated by IL-7 alone or in combination with rrSCF^1-164 contained primarily pre-B cells. Pre-B cells, characterized as B220^+, sIg^−, cμ^+, were identified by FACS analysis of pooled cells using fluorescence-labeled antibodies to the B220 antigen [Coffman, Immunol. Rev., 69, 5 (1982)] and to surface Ig (FITC-goat anti-K, Southern Biotechnology Assoc., Birmingham, Ala.); and by analysis of cytospin slides for cytoplasmic μ expression using fluorescence-labeled antibodies (TRITC-goat anti-μ, Southern Biotechnology Assoc.,). Recombinant human IL-7 (rhIL-7) was obtained from Biosource International (Westlake Village, Calif.). When rrSCF^1-164 was added in combination with the pre-B cell growth factor IL-7, a synergistic increase in colony formation was observed (Table 16), indicating a stimulatory role of rrSCF^1-164 on early B cell progenitors.

B1: rrSCF^1-164: recombinant rat SCF^1-164 from E. coli, also used ^125I-labelled (protein)
chain: QEICRNPVTDNVKDITKLVANLPNDYMITLNYVAGMDVLPSHCWLRDMVTHLSVSLTTLLDKFSNISEGLSNYSIIDKLGKIVDDLVACMEENAPKNVKESLKKPETRNFTPEEFFSIFNRSIDAFKDFMVASDTSDCVLSSTLGPEKDSRVSVTKPFMLPPVA
macrocytic anemia (hematocrit, mean red cell volume) [1]: significant correction of the macrocytic anemia
Colony Number per 5 × 10^4 mouse bone marrow cells plated (mouse bone marrow cells; 50 ng): 4 ± 2
Colony Number per 5 × 10^4 mouse bone marrow cells plated (mouse bone marrow cells; 100 ng): 7 ± 4
Colony Number per 5 × 10^4 mouse bone marrow cells plated (mouse bone marrow cells; 200 ng, mean of triplicate dishes ± SD): 13 ± 2
